Results: US20250002593A1 (INMAGENE PTE, published 2025)
Changes are numbered by the printed parent chain. In names and notes the source's numbering stands.

What was measured:
[1] = biological target: T1, Recombinant hIL-36R protein (Acrobio, Cat #IL2-H52H6) (human, UniProt Q9HB29 20-335); test: BLI (Gator), antibody on Protein A sensor, hIL-36R analyte; column head prints koff(1/Ms)
T1 construct: Bought soluble protein; also called recombinant human IL-36R protein
T1 sequence: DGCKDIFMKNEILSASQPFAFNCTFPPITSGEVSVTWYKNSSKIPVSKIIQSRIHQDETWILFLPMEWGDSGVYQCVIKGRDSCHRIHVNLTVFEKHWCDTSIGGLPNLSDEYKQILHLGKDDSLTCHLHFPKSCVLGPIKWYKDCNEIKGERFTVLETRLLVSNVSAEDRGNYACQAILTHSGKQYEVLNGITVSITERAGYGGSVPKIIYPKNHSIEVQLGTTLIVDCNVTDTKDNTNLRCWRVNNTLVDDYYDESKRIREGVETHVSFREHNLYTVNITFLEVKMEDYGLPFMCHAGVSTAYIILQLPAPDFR

[2] = biological target: T1, Recombinant hIL-36R protein (Acrobio, …); test: BLI (Gator), antibody on Protein A sensor, hIL-36R analyte
[3] = biological target: T1, Recombinant hIL-36R protein (Acrobio, …); test: BLI (Gator), antibody on Protein A sensor, hIL-36R analyte; column head prints kon(1/s)
membrane hIL-36R [4] = biological target: T2, membrane hIL-36R (human, UniProt Q9HB29 20-575); test: cell-based or functional assay
T2 sequence: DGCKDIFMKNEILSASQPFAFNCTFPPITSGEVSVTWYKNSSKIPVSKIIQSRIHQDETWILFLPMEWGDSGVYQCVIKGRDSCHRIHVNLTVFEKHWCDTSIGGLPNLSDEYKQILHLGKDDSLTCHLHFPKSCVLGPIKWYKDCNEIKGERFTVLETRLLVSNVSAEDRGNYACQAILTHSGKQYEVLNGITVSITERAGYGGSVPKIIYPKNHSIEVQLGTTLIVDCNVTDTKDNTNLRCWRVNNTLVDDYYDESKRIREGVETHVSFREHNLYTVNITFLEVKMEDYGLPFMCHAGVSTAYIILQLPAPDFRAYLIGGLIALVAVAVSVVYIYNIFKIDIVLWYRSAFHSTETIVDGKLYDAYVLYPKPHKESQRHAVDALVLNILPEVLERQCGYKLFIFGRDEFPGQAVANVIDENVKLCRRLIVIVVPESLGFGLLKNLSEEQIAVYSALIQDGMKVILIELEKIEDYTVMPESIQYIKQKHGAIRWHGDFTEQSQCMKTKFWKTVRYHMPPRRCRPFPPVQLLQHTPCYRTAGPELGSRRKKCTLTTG

membrane hIL-36R [5] = biological target: T2, membrane hIL-36R; test: cell-based or functional assay; remark: listed apart in the source
[6] = biological target: T3, recombinant hFcRn-his/B2M heterodimer protein (Acrobio, Cat #FCM-H82W4) (human, UniProt P55899 24-297; P61769 21-119); test: BLI (Gator) at pH 6.0, hFcRn-his/B2M on anti-his sensor, antibody analyte
T3 construct: Bought heterodimer
T3 sequence (P55899 24-297 limits assumed, chain 1 of 2): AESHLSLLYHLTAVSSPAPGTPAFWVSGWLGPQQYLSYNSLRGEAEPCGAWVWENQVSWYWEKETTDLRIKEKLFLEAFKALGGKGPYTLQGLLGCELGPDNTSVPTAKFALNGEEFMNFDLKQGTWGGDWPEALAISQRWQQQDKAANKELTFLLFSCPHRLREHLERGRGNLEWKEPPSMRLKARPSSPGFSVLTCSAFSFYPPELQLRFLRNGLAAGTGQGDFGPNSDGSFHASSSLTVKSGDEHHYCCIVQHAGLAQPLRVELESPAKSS
T3 sequence (P61769 21-119 limits assumed, chain 2 of 2): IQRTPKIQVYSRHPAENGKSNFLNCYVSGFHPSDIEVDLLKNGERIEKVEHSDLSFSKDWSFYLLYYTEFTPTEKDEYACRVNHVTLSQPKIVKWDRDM

[7] = biological target: T3, recombinant hFcRn-his/B2M heterodimer …; test: as above; remark: listed apart in the source
membrane hIL-36R [8] = biological target: T2, membrane hIL-36R; test: cell-based or functional assay; remark: listed apart in the source
recombinant hIL-36R-his = biological target: T4, recombinant hIL-36R-his (human, UniProt Q9HB29 20-337); test: ELISA on coated recombinant hIL36R protein (1 µg/ml), detection with HRP anti-hIgG; unit taken from the x axis Ab(µg/mL)
T4 construct: Residues 1-337 (extracellular domain) are stated for the IL-36R-his used as immunogen; The range includes the signal peptide; no cleavage site is stated; also called recombinant hIL36R protein; recombinant human IL-36R-his protein; not shown: His tag
T4 sequence: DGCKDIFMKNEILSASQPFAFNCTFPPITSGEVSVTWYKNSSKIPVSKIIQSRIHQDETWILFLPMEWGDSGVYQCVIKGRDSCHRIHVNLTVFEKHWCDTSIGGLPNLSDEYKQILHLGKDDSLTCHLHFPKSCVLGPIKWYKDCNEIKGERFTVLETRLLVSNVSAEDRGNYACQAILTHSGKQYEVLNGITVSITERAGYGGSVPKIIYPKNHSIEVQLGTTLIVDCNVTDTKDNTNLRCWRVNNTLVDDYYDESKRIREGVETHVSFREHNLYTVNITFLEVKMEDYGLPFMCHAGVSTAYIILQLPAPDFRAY

membrane hIL-36R [9] = biological target: T2, membrane hIL-36R; test: flow cytometry on HEK293 cells transfected with pcDNA3.1-hIL36R, FITC anti-hIgG, MFI (median); unit taken from the x axis
[10] = biological target: T1, Recombinant hIL-36R protein (Acrobio, …); test: SPR (Biacore T200, 25 C), antibody captured by Fc, hIL-36R analyte
membrane hIL-36R [11] = biological target: T2, membrane hIL-36R; test: cell-based or functional assay; remark: listed apart in the source
membrane hIL-36R [12] = biological target: T2, membrane hIL-36R; test: cell-based or functional assay; remark: listed apart in the source
membrane hIL-36R [13] = biological target: T2, membrane hIL-36R; test: cell-based or functional assay; remark: listed apart in the source
membrane hIL-36R [14] = biological target: T2, membrane hIL-36R; test: cell-based or functional assay; remark: listed apart in the source
membrane hIL-36R [15] = biological target: T2, membrane hIL-36R; test: cell-based or functional assay; remark: listed apart in the source
[16] = biological target: T5, Recombinant hIL1R1 protein (human, UniProt P14778 18-332, limits assumed); test: ELISA on coated recombinant hIL1R1 protein, detection with HRP anti-hIgG
T5 sequence (looked up): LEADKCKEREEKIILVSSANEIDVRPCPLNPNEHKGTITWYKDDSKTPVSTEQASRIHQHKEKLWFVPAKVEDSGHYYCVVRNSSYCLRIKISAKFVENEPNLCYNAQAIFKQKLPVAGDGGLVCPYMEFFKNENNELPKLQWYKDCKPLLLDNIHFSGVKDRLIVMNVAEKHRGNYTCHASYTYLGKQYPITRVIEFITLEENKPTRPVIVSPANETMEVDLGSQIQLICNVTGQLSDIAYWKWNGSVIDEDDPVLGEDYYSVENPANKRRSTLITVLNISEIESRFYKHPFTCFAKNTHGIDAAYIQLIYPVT

B1: 5F7 (antibody, V domains shown)
VH: EVKLVESGGGLVQPGGSLSLSCAASGFAFTDYYMNWVRQPPGKALEWLALIRNKAAGYTIYYSASVKGRFTISRDNSQSILYLQMTALRPEDSATYYCVRDMTIYDGYYVDYALDYWGQGTSVTVSS
VL: DIQMNQSPSSLSASLGDTITITCRASQNINIWLSWYQQKPGNIPKLFIYKASNLHTGVPSRFSGSGSGTDFTLTISSLQPEDIATYYCQQSQSYPLTFGAGTKLELK
notes: Mouse variable regions; also called chimeric antibody 5F7; 5F7 original molecular
koff [1]: 0.000861 s⁻¹ | Kd [2]: 14.6 nM | kon [3]: 59100 M⁻¹ s⁻¹ | IC50, IL-36R reporter assay: inhibition of ligand induced luminescence in Jurkat-IL36R-IL1Racp-NFkB-luc cells (column printed '5F7-mus', taken as the '5F7 original molecular' of paragraph 330) (membrane hIL-36R [4]): 0.226 µg/mL | IC50, IL-36α induced IL-36R signaling (IL36R reporter assay, luciferase) (membrane hIL-36R [5]): 0.448 nM

B2: 5F7-2a8-QA (antibody, human IgG4 S228P, kappa)
heavy: EVQLVESGGGLVKPGGSLRLSCAASGFAFGDYYMNWVRQAPGKGLEWVALIRNKAAGYTIYYSAPVKGRFTISRDDSKSTLYLQMNSLKTEDTAVYYCVRDMTIYDGYYVDYALDYWGQGTLVTVSSASTKGPSVFPLAPCSRSTSESTAALGCLVKDYFPEPVTVSWNSGALTSGVHTFPAVLQSSGLYSLSSVVTVPSSSLGTKTYTCNVDHKPSNTKVDKRVESKYGPPCPPCPAPEFLGGPSVFLFPPKPKDTLMISRTPEVTCVVVDVSQEDPEVQFNWYVDGVEVHNAKTKPREEQFNSTYRVVSVLQVLHQDWLNGKEYKCKVSNKGLPSSIEKTISKAKGQPREPQVYTLPPSQEEMTKNQVSLTCLVKGFYPSDIAVEWESNGQPENNYKTTPPVLDSDGSFFLYSRLTVDKSRWQEGNVFSCSVMHEALHAHYTQKSLSLSLGK
light: DIVMTQSPSSVSASVGDRVTITCRASRNINIWLSWYQQKPGKAPKLFIYKASNLHTGVPSRFSGSGSGTDFTLTISSLQPEDFATYYCLQSQSYPLTFGQGTKLEIKRTVAAPSVFIFPPSDEQLKSGTASVVCLLNNFYPREAKVQWKVDNALQSGNSQESVTEQDSKDSTYSLSSTLTLSKADYEKHKVYACEVTHQGLSSPVTKSFNRGEC
notes: 5F7-2a8 with T307Q/N434A in the IgG4 (S228P) Fc; also called 5F7-QA
Kd [6]: 13.7 nM | koff [6]: 0.00398 s⁻¹ | kon [6]: 290000 M⁻¹ s⁻¹ | fold increase of binding affinity against 5F7-2a8-WT [7]: ~10 fold

B3: 5F7-2a8-YTE (antibody, human IgG4 S228P, kappa)
heavy: B2 heavy with M259Y, S261T, T263E, Q314T, A441N
light: B2 light
notes: 5F7-2a8 with M252Y/S254T/T256E in the IgG4 (S228P) Fc; also called 5F7-YTE
Kd [6]: 15.4 nM | koff [6]: 0.00277 s⁻¹ | kon [6]: 180000 M⁻¹ s⁻¹ | fold increase of binding affinity against 5F7-2a8-WT [7]: ~10 fold

B4: 9A6 (antibody, V domains shown)
VH: QVQLQQSGPGLMAPSQSLSITCTVSGFSLTSYDVSWIRQSPGKGLEWLGVIWTGGGTDYNSAFMSRLSITKDNSKSQVFLKMSSLQTDDTAIYYCVRVYYDPYYAMDYWGQGTSVTVSS
VL: DIVLTQSPAIMSASPGEKVTMTCSASSSVSSRYLHWYQQKSGASPKLWIYGTSNLASGVPARFSGSGSGTSYSLTISSVEAEDAATYYCQQYHSDPLTFGAGTKLELK
notes: Mouse variable regions; also called chimeric antibody 9A6
koff [1]: 8.14e-07 s⁻¹ | Kd [2]: 0.0205 nM | kon [3]: 39700 M⁻¹ s⁻¹ | IC50, IL-36α induced IL-36R signaling (IL36R reporter assay, luciferase) (membrane hIL-36R [5]): 0.312 nM

B5: REGN14 (antibody, V domains shown)
VH: EVQLVESGGDLVQPGRSLRLSCAASGFTFDDYAMHWVRQAPGKGLEWVSVISWNSDVIAYSDSVKGRFTISRDNAKNSLYLQMNSLRTEDTALYYCTKGHKWSFFDYWGQGTLVTVSS
VL: EIVLTQSPATLSLSPGERATLSCRASQSISSYLAWYQQKPGQAPRLLIFNVANRATDIPARFSGSGSGTDFTLTISSLEPEDFAVYYCQQRSNWPLTFGGGTKVEIK
notes: also called benchmark antibody
IC50, IL-36R reporter assay: inhibition of IL-36α induced luminescence in Jurkat-IL36R-IL1Racp-NFkB-luc cells (printed REGN-14) (membrane hIL-36R [8]): 0.0839 nM | EC50 (recombinant hIL-36R-his): 0.0106 µg/mL | EC50 (membrane hIL-36R [9]): 0.0582 µg/mL | Kd [10]: 3.74 nM | koff [10]: 0.000283 s⁻¹ | kon [10]: 75600 M⁻¹ s⁻¹ | IC50, inhibition of IL-36α induced IL-8 release in A431 cells (IL-8 ELISA, OD450) [panel IL-36α] (membrane hIL-36R [11]): 2.29 µg/mL | IC50, inhibition of IL-36β induced IL-8 release in A431 cells (IL-8 ELISA, OD450) [panel IL-36β] (membrane hIL-36R [11]): 1.02 µg/mL | IC50, inhibition of IL-36γ induced IL-8 release in A431 cells (IL-8 ELISA, OD450) [panel IL-36γ] (membrane hIL-36R [11]): 0.0627 µg/mL | IC50, IL-36R reporter assay: inhibition of ligand induced luminescence in Jurkat-IL36R-IL1Racp-NFkB-luc cells (printed REGN-14) (membrane hIL-36R [4]): 0.169 µg/mL | IC50, inhibition of IL-36α induced IL-8 release in primary human dermal fibroblast (HDF) cells (IL-8 ELISA, OD450) (membrane hIL-36R [12]): 0.0877 µg/mL | IC50, inhibition of IL-36γ induced IL-6 release in primary human epithelial keratinocytes (HEK cells) [panel IL-6] (membrane hIL-36R [13]): 0.148 µg/mL | IC50, inhibition of IL-36γ induced IL-8 release in primary human epithelial keratinocytes (HEK cells) [panel IL-8] (membrane hIL-36R [13]): 0.114 µg/mL | IC50, inhibition of IL-36γ induced TNF-α release in primary human epithelial keratinocytes (HEK cells) [panel TNF-α] (membrane hIL-36R [13]): 0.0347 µg/mL | IC50, inhibition of IL-36α induced IL-6 release in primary human epithelial keratinocytes (HEK cells) [panel IL-6] (membrane hIL-36R [14]): 1.73 µg/mL | IC50, inhibition of IL-36α induced IL-8 release in primary human epithelial keratinocytes (HEK cells) [panel IL-8] (membrane hIL-36R [14]): 1.47 µg/mL | IC50, inhibition of IL-36α induced TNF-α release in primary human epithelial keratinocytes (HEK cells) [panel TNF-α] (membrane hIL-36R [14]): 0.353 µg/mL | IC50, inhibition of IL-36β induced IL-6 release in primary human epithelial keratinocytes (HEK cells) [panel IL-6] (membrane hIL-36R [15]): 0.0225 µg/mL | IC50, inhibition of IL-36β induced IL-8 release in primary human epithelial keratinocytes (HEK cells) [panel IL-8] (membrane hIL-36R [15]): 0.253 µg/mL | IC50, inhibition of IL-36β induced TNF-α release in primary human epithelial keratinocytes (HEK cells) [panel TNF-α] (membrane hIL-36R [15]): 0.0298 µg/mL | binding result [16]: no binding (tested: 1 µg/mL)
